According to patent publication US20170157251A1 (MacroGenics, published 2017):

Columns and labels:
[1] = target: T1, human CD3 on T cells (human, UniProt P07766 23-207; P04234 22-171); assay: flow cytometry on human blood leukocytes, CD4+ and CD8+ gate (T cells); detection with biotinylated anti-E-coil/K-coil mAb and streptavidin-PE
T1 construct: also called CD3 on human CD4+ and CD8+ T cells; copies: 1 + 1

[2] = target: T2, cynomolgus monkey CD3 on T cells (cynomolgus monkey, UniProt Q95LI5 22-198; Q95LI8 22-171); assay: flow cytometry on cynomolgus monkey blood leukocytes, CD4+ and CD8+ gate (T cells); detection with biotinylated anti-E-coil/K-coil mAb and streptavidin-PE
T2 construct: T cells were gated as CD4+ and CD8+; also called CD3 on cynomolgus monkey CD4+ and CD8+ T cells
T2 sequence (Q95LI5 22-198 limits assumed, chain 1 of 2): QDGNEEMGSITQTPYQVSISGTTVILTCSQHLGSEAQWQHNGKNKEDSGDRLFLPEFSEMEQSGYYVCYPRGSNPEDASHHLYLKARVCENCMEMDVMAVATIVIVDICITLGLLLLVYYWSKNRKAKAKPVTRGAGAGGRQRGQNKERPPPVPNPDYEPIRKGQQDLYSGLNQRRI
T2 sequence (Q95LI8 22-171 limits assumed, chain 2 of 2): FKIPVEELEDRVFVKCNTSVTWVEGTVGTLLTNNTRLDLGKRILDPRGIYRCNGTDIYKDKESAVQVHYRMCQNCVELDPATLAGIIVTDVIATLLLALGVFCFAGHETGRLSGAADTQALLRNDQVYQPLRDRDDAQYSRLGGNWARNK

[3] = target: T3, soluble human CD19-biotin (human, UniProt P15391 20-291, limits assumed, biotin (site not stated)); assay: bifunctional (bispecific) ELISA: plate coated with soluble human CD3ε/δ, DART titrated, detected with soluble human CD19-biotin
T3 construct: Detection antigen of the bifunctional ELISA
T3 sequence (looked up): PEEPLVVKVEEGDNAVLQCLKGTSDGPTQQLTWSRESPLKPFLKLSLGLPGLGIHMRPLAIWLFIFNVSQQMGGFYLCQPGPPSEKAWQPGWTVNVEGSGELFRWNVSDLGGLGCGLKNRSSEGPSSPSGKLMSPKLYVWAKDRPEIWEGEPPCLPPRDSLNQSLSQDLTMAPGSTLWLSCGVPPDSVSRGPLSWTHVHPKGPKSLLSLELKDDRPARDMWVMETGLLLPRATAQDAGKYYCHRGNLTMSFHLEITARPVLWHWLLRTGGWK

[4] = target: T4, human CD19 on cells (human, UniProt P15391 20-556); assay: flow cytometry on human blood leukocytes, CD20+ gate (B cells); detection with biotinylated anti-E-coil/K-coil mAb and streptavidin-PE
T4 construct: whole, on cells; also called CD19 on human CD20+ B cells; CD19 on Raji/GF, HBL-2, Jeko-1 cells
T4 sequence (looked up): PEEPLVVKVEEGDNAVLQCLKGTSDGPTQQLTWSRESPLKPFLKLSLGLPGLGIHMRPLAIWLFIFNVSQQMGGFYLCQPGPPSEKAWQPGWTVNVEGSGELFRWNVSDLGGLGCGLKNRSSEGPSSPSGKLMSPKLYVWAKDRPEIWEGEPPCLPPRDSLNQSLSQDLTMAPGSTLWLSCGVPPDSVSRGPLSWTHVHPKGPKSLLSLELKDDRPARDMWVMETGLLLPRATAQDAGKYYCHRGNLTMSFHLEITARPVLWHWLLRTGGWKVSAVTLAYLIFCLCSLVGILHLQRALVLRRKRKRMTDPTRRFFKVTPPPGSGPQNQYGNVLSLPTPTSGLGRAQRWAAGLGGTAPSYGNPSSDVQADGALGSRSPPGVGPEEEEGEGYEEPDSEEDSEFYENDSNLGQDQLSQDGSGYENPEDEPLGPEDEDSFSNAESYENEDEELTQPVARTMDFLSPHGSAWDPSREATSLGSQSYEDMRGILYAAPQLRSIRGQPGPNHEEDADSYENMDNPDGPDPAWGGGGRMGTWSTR

T1 sequence (P07766 23-207 limits assumed, chain 1 of 2): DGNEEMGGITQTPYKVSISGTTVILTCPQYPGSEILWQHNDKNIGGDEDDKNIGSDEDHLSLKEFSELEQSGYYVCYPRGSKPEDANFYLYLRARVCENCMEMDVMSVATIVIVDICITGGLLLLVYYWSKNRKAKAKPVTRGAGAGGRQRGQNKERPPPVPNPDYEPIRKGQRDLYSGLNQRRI
T1 sequence (P04234 22-171 limits assumed, chain 2 of 2): as the sequence (Q95LI8 22-171 limits assumed, chain 2 of 2) above, with V5I, K15N, V20I, T32S, N33D, N34I, A64T, N74S, L83V, R141H counted along it

B1: Control DART 1 (Fluorescein×CD3) (bispecific antibody)
chain 1: DVVMTQTPFSLPVSLGDQASISCRSSQSLVHSNGNTYLRWYLQKPGQSPKVLIYKVSNRFSGVPDRFSGSGSGTDFTLKISRVEAEDLGVYFCSQSTHVPWTFGGGTKLEIKGGGSGGGGEVQLVESGGGLVQPGGSLRLSCAASGFTFSTYAMNWVRQAPGKGLEWVGRIRSKYNNYATYYADSVKGRFTISRDDSKNSLYLQMNSLKTEDTAVYYCVRHGNFGNSYVSWFAYWGQGTLVTVSSASTKGEVAACEKEVAALEKEVAALEKEVAALEKGGGDKTHTCPPCPAPEAAGGPSVFLFPPKPKDTLMISRTPEVTCVVVDVSHEDPEVKFNWYVDGVEVHNAKTKPREEQYNSTYRVVSVLTVLHQDWLNGKEYKCKVSNKALPAPIEKTISKAKGQPREPQVYTLPPSREEMTKNQVSLWCLVKGFYPSDIAVEWESNGQPENNYKTTPPVLDSDGSFFLYSKLTVDKSRWQQGNVFSCSVMHEALHNHYTQKSLSLSPGK
chain 2: QAVVTQEPSLTVSPGGTVTLTCRSSTGAVTTSNYANWVQQKPGQAPRGLIGGTNKRAPWTPARFSGSLLGGKAALTITGAQAEDEADYYCALWYSNLWVFGGGTKLTVLGGGGSGGGGEVKLDETGGGLVQPGRPMKLSCVASGFTFSDYWMNWVRQSPEKGLEWVAQIRNKPYNYETYYSDSVKGRFTISRDDSKSSVYLQMNNLRVEDMGIYYCTGSYYGMDYWGQGTSVTVSSASTKGKVAACKEKVAALKEKVAALKEKVAALKE
chain 3: not shown
notes: other arm is anti-fluorescein 4-4-20
binding result [1]: binds | binding result [2]: binds | binding result [3]: no binding (tested: about 5 µg/ml) | binding result [4]: no binding (tested: about 80 nM)
